# Experimental data from US20230109393A1 (UNITED BIOMEDICAL, published 2023).
# Biological target: T1, ACE2-ECD-sFc fusion protein (Homo sapiens)
# T1 construct: also called ACE2-sFc; ACE ECD-sFc
# Assay: ELISA, plate coated with ACE2 ECD-sFc
binder,measurement,value
"HRP alone (enzyme, UniProt P00433 31-338, looked up, also called HPR alone; control tracer) QLTPTFYDNSCPNVSNIVRDTIVNELRSDPRIAASILRLHFHDCFVNGCDASILLDNTTSFRTEKDAFGNANSARGFPVIDRMKAAVESACPRTVSCADLLTIAAQQSVTLAGGPSWRVPLGRRDSLQAFLDLANANLPAPFFTLPQLKDSFRNVGLNRSSDLVALSGGHTFGKNQCRFIMDRLYNFSNTGLPDPTLNTTYLQTLRGLCPLNGNLSALVDFDLRTPTIFDNKYYVNLEEQKGLIQSDQELFSSPNATDTIPLVRSFANSTQTFFNAFVEAMDRMGNITPLTGTQGQIRLNCRVVNSNS",binding result,no binding
